Tests used:
[1] = target: IgE (lambda light chain) secreted by U266 cells; assay: flow cytometry, U266 cells alone with the StAv-FcεRIα capture complex; x axis Secreted IgE, y axis IgM
[2] = target: IgE (lambda light chain) secreted by U266 cells; assay: flow cytometry, Ramos + U266 mixed 100X1 with the StAv-FcεRIα capture complex; 94.6 % of the cells lie in the IgM+ gate at low secreted IgE
Secreted IgG = assay: flow cytometry, human bone marrow plasma cells (CD20- CD38++) with NHS-biotin, StAv-anti-human Igk and anti-IgG; controls in FIG. 21B (D00065): without NHS-Biotin 1.2%, without StAv-IgKappa 0.72%, without anti-IgG 0%

% of cells in the secreted IgE+ / IgM- gate [1] [%] | % of cells in the secreted IgE+ / IgM- gate [2] [%] | % IgG+ of plasma cells (Secreted IgG) [%] | Substance
94.9 | 2.4 | – | secreted IgE capture reagent: streptavidin conjugated to the ectodomain of the high affinity IgE receptor FcεRIα (from UniProt P12319 26-205)
– | – | 5.2 | streptavidin coupled to anti-human Igk (antibody)

Reference: patent US20230349919A1
